One substance from patent publication US20250101098A1 can be followed below.

Common to all, as to assay: flow cytometry, HEK 293 cells overexpressing the target
On the technique in general: A flow cytometer gives signals particle by particle.

Assay [1] concerns the target cynomolgus monkey nectin-4 protein expressed on the surface of HEK 293 cells (cynomolgus monkey).
Assay [2] concerns the target mouse nectin-4 protein expressed on the surface of HEK 293 cells (mouse) (UniProt Q8R007).
The target of assay [3] is human nectin-4 protein expressed on the surface of cells (human) (UniProt Q96NY8).
Chain of human nectin-4 protein expressed on the surface of cells (human) (Q96NY8 32-510 limits assumed): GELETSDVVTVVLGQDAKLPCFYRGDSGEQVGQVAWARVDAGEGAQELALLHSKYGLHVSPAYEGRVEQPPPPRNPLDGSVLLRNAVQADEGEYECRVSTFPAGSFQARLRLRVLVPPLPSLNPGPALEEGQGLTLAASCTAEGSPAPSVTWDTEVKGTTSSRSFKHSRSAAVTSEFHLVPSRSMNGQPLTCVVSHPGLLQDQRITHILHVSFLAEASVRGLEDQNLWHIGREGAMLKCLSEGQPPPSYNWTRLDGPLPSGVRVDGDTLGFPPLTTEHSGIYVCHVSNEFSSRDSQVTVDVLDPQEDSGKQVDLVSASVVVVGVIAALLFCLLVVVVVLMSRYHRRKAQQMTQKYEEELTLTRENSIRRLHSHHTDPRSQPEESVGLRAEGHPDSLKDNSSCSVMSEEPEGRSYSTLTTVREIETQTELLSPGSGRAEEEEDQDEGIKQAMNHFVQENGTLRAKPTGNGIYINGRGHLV
The target in assay [4] is rat nectin-4 protein expressed on the surface of HEK 293 cells (rat) (UniProt D3ZET1).

Chain of mouse nectin-4 protein expressed on the surface of HEK 293 cells (mouse) (Q8R007 31-508): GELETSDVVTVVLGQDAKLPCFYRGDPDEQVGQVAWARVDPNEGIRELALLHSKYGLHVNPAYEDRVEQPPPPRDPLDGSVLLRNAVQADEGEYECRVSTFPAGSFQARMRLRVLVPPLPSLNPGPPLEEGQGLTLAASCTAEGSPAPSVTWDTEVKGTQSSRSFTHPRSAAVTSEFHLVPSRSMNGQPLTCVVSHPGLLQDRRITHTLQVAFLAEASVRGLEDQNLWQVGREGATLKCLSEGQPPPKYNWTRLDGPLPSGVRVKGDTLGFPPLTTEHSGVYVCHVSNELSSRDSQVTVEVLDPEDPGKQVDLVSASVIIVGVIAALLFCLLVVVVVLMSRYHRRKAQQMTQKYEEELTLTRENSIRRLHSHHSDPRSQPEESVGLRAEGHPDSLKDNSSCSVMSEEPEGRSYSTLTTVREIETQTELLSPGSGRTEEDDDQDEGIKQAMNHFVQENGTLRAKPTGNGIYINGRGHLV

Anti-FITC Isotype Control (antibody): the Flow data was 189 in assay [1], 163 in assay [2], 132 in assay [3] and 196 in assay [4].
